Assay results: patent publication US20150299277A1, “AGENT FOR TREATING OR PREVENTING SYSTEMIC INFLAMMATORY RESPONSE SYNDROME” (THE UNIVERSITY OF TOKYO, priority 2012, published 2015)
Entries after “also recorded” stand apart in the source; their conditions may differ.

What was measured:
each histone [1] = assay: ELISA binding assay; parameters: species or system human; conditions: immobilized recombinant histone
Procedure: Recombinant human histone (NEB) was adjusted to a concentration of 1 μg/mL in TBS, added to a 96 well ELISA plate, and immobilized at 4° C. overnight. The solution was discarded, a blocking buffer (TBS, 0.1% Triton-X100, 1% BSA) was added, and the plate was incubated at room temperature for 2 hr. The plate was washed four times with a wash buffer (TBS, 0.1% Triton-X100), recombinant PTX3 diluted to various concentrations with the blocking buffer was added to each well, and reacted at room temperature for 1 hr. After washing four times with the wash buffer, HRP-labeled antibody diluted with the blocking buffer was added, and reacted at room temperature for 1 hr. After washing four times with the wash buffer, TMB solution was added to carry out a color development reaction for 30 min, and the absorbance at 450 nm was measured. […]
The binding level between immobilized each recombinant histone and tag-free recombinant human PTX3 (rhPTX3) was measured by binding assay (ELISA). […] ELISA was performed with duplicate wells for each point, and means and standard deviations were calculated from three independent experiments.
The binding level between immobilized each recombinant histone and a tagged human PTX3 fragment was measured by binding assay (ELISA). […] ELISA was performed with duplicate wells for each point, and means and standard deviations were calculated from three independent experiments.

each histone [2] = assay: BIAcore / surface plasmon resonance (SPR) measurement; type: binding, human; conditions: immobilized recombinant histone
Procedure: For the measurement, BIAcore 3000 or T200 (GE Healthcare) was used. Recombinant human histone was immobilized on CM5 sensor chip by an amine coupling kit (GE Healthcare). The reaction with recombinant PTX3 was performed using a buffer (150 mM NaCl, 20 mM HEPES, 0.005% surfactant P20 (pH 7.4)) at a flow rate of 20 μl/min. Measurement was performed using the buffer containing […]. The sensor chip was regenerated in IM sodium acetate (10 μL, pH 7.2) and 10 mM NaOH (10 μL).
The binding of immobilized each recombinant histone, and Myc- and His-tagged human PTX3 fragment was measured by surface plasmon resonance (SPR). The highest concentration of each PTX3 was as follows. full-length PTX3: 1 nM, N-terminal domain of PTX3: 5 nM, C-terminal domain of PTX3: 50 nM. The assay buffer contained 4 mM CaCl2 (Ca^2+) or 4 mM EDTA/EGTA. The affinity measured by SPR was calculated from three experiments.

Calf Thymus Histones = assay: Aggregation with histone, absorbance at 310 nm; type: binding; conditions: mixture with Calf Thymus Histones
Procedure: The lower left figure and the lower right figure show the measurement results of absorbance at 310 nm of a mixture of a wild-type or oligomer formation capacity-deficient mutant of PTX3 N-terminal domain having each concentration and 0.1 mg/mL Calf Thymus Histones at 1:1 vol.
The aggregation activity of PTX3 and other pentraxins to histone was evaluated. Calf Thymus Histones (50 μg/mL) were mixed with a PTX3 fragment or the other pentraxin at each concentration, and the absorbance at the wavelength of 310 nm was measured. Before mixing, samples were dialyzed against 4 mM CaCl2-containing TBS.

each histone variant = assay: Aggregation of each histone variant and PTX3 fragment, absorbance at 310 nm; type: binding; conditions: histone variant 50 μg/mL, PTX3 fragment 30 μg/mL
Procedure: Each histone variant (50 μg/mL) and each PTX3 fragment (30 μg/mL) were mixed, and the absorbance at the wavelength of 310 nm was measured. Before mixing, samples were dialyzed against 4 mM CaCl2-containing TBS.

[3] = test system: Calf Thymus Histones on HUVEC; assay: Cytotoxic assay: suppression of histone cytotoxicity on HUVEC; type: cell-based, human; conditions: 100 μg/mL Calf Thymus Histones, 40 μg/mL protein, 1 hr, PI staining, FACS
Procedure: After culturing for 1 hr in a medium concurrently containing 100 μg/mL Calf Thymus Histones and APC (200 nM), PTX3 (40 μg/mL), CRP (40 μg/mL) or SAP (40 μg/mL), the level of toxic activity was measured by FACS.
Normal human umbilical vein endothelial cells (HUVECs) were cultured in EGM2 medium (Clonetics). The cells after culture were washed with PBS, added with Opti-MEM medium containing an product of incubation of activated protein C (APC), PTX3, C reactive protein (CRP) or Serum amyloid P component (SAP) with histone for 1 hr, and the cells were further cultured for 1 hr. Propidium iodide (PI) was added to the medium after culture at a final concentration of 10 μg/mL, and the cells were stained for 10 min. The cells were washed with PBS, detached and analyzed by flow cytometry.
The histone cytotoxicity on HUVEC was evaluated by propidium iodide (PI) staining.
Lastly, capacity of suppressing the cytotoxic activity of histone was confirmed. Since this experiment requires a certain amount of protein and an endotoxin-elimination as treatment, a protein was expressed and purified at a 500 mL culture scale, and subjected to an endotoxin-elimination treatment (FIG. 18). In the case of PTX3 N-terminal domain, about 10 mg was obtained at a 500 mL culture scale, and a loss by the endotoxin-elimination treatment was scarcely observed. […]

B1: N-terminal domain that lost the oligomer formation capacity: N-terminal domain human PTX3 wherein the 47th, 49th, 103rd cysteine residues were replaced with serine residue (protein)
chain: ENLYFQGENSDDYDLMYVNLDNEIDNGLHPTEDPTPSDSGQEHSEWDKLFIMLENSQMRERMLLQATDDVLRGELQRLREELGRLAESLARPSAPGAPAEARLTSALDELLQATRDAGRRLARMEGAEAQRPEEAGRALAAVLEELRQTRADLHAVQGWAARSWLPAG
modifications: left off: small tags and cut ends
notes: N-terminal domain human PTX3 wherein the 47th, 49th, 103rd cysteine residues were replaced with serine residue
- bindability to each histone (binding assay) (each histone [1]): decrease; also recorded: scarcely bound
- affinity for each histone by SPR (each histone [2]): affinity decreased as compared to the wild-type
- aggregation with Calf Thymus Histones, absorbance at 310 nm (Calf Thymus Histones): decrease; also recorded: decreased aggregation activity

B2: C-terminal domain of PTX3: C-terminal domain human PTX3 (179-381 amino acids), Myc- and His-tagged (protein)
chain: CETAILFPMRSKKIFGSVHPVRPMRLESFSACIWVKATDVLNKTILFSYGTKRNPYEIQLYLSYQSIVFVVGGEENKLVAEAMVSLGRWTHLCGTWNSEEGLTSLWVNGELAATTVEMATGHIVPEGGILQIGQEKNGCCVGGGFDETLAFSGRLTGFNIWDSVLSNEEIRETGGAESCHIRGNIVGWGVTEIQPHGGAQYVS
modifications: left off: small tags and cut ends
notes: C-terminal domain human PTX3 (179-381 amino acids), Myc- and His-tagged
- bindability to each histone (binding assay) (each histone [1]): weak
- affinity for each histone by SPR (each histone [2]): full-length PTX3>N-terminal domain>C-terminal domain
- aggregation with Calf Thymus Histones, absorbance at 310 nm (Calf Thymus Histones): weaker than that of the full-length PTX3 and N-terminal domain of PTX3
- aggregation with each histone variant, absorbance at 310 nm (each histone variant): aggregated

B3: CRP: C-reactive protein, short pentraxin used as comparator (protein, UniProt P02741 19-224, looked up)
C-reactive protein: QTDMSRKAFVFPKESDTSYVSLKAPLTKPLKAFTVCLHFYTELSSTRGYSIFSYATKRQDNEILIFWSKDIGYSFTVGGSEILFEVPEVTVAPVHICTSWESASGIVEFWVDGKPRVRKSLKKGYTVGAEASIILGQEQDSFGGNFEGSQSLVGDIGNVNMWDFVLSPDEINTIYLGGPFSPNVLNWRALKYEVQGEVFTKPQLWP
- suppression of toxic activity of Calf Thymus Histones on HUVEC [3]: do not have such suppressive effect
- aggregation with Calf Thymus Histones, absorbance at 310 nm (Calf Thymus Histones): no aggregation capacity; also recorded: scarcely showed an aggregation activity
